# How the values were obtained:
# proteinase 3 [1] = target: proteinase 3 (UniProt P24158); experiment: time course of enzyme inhibition (residual activity, second order association rate constant); purified M or Z variant A1AT and PR3, equimolar, 1 nM each, 23°C, plate wells of 150 uL; residual PR3 activity at 1-5 min with the FRET substrate Abz-VAD-norV-ADRQ-EDDnp
# proteinase 3 [2] = target: proteinase 3 (UniProt P24158); experiment: time course of enzyme inhibition (residual activity, second order association rate constant); methylamine-treated serum A1AT and PR3, equimolar, 1 nM each, 23°C, plate wells of 150 uL; residual PR3 activity at 1-5 min with the FRET substrate Abz-VAD-norV-ADRQ-EDDnp
# [3] = target: T1, F variant alpha-1-antitrypsin (human (endogenous in serum), UniProt P01009 25-418, arginine at residue 223 by cysteine); experiment: as above; conditions: one partner purified
# T1 construct: alpha-1-antitrypsin (A1AT), F variant, human serum; arginine at residue 223 replaced by cysteine; also called F variant A1AT; F A1AT; source: endogenous, serum of a PiFF homozygote, treated with methylamine
# T1 sequence (P01009 other isoform, or with tags, fused parts or gaps with the stated changes): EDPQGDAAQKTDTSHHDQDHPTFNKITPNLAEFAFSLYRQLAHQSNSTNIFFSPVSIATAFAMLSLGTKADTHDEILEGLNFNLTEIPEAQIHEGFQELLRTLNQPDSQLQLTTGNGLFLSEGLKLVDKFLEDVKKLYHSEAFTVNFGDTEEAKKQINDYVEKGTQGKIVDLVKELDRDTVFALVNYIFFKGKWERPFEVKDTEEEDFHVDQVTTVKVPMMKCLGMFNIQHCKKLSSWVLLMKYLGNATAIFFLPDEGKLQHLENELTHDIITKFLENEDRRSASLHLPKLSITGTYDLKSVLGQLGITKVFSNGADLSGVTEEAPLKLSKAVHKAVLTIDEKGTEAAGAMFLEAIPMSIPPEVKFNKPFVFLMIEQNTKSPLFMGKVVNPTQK
# [4] = target: T2, M variant alpha-1-antitrypsin (human (endogenous in serum), UniProt P01009 25-418); experiment: as above; conditions: one partner purified
# T2 construct: alpha-1-antitrypsin (A1AT), normal M variant, human serum or bought pure protein; the assays tell them apart; also called M variant A1AT; pure M variant A1AT; source: endogenous, serum of healthy PiMM controls, treated with methylamine; also bought: Athens Research and Technology, pure
# T2 sequence (P01009 25-418, change not shown): as the sequence (P01009 other isoform, or with tags, fused parts or gaps with the stated changes) above, with C223R counted along it
# [5] = target: T2, M variant alpha-1-antitrypsin; experiment: time course of enzyme inhibition (residual activity, second order association rate constant); purified M or Z variant A1AT and PR3, equimolar, 1 nM each, 23°C, plate wells of 150 uL; residual PR3 activity at 1-5 min with the FRET substrate Abz-VAD-norV-ADRQ-EDDnp; conditions: both partners purified
kon (proteinase 3 [1]) [M⁻¹ s⁻¹],kon (proteinase 3 [2]) [M⁻¹ s⁻¹],kon [3] [M⁻¹ s⁻¹],kon [4] [M⁻¹ s⁻¹],kon [5] [M⁻¹ s⁻¹],Molecule
1.03e+06,1.1e+06,,,,Z variant alpha-1-antitrypsin (from UniProt P01009 25-418) (natural protein)
,951000,,,,S variant alpha-1-antitrypsin (from UniProt P01009 25-418) (natural protein)
,,1.06e+06,924000,983000,"proteinase 3 (enzyme, UniProt P24158 28-248, looked up, proteinase 3 (PR3), bought pure enzyme, active site titrated; also called PR3; pure PR3; source: bought: Merck, pure) IVGGHEAQPHSRPYMASLQMRGNPGSHFCGGTLIHPSFVLTAAHCLRDIPQRLVNVVLGAHNVRTQEPTQQHFSVAQVFLNNYDAENKLNDVLLIQLSSPANLSASVATVQLPQQDQPVPHGTQCLAMGWGRVGAHDPPAQVLQELNVTVVTFFCRPHNICTFVPRRKAGICFGDSGGPLICDGIIQGIDSFVIWGCATRLFPDFFTRVALYVDWIRSTLR"
